The values below come from article PMC9555727 (Chemical Science, 2022).

Values joined by “and” are separate entries in the source; they are usually repeats but may differ in a detail not shown here. Identical values can stand only once. Like-named read-outs stand apart in the source and are kept apart here.

For data set [1], the target named is FabG (3-oxoacyl-[acyl-carrier-protein] reductase) from E. coli-DE3 (E. coli BL21 (DE3)). Nature of the data set: native MS; as a1, FabG^DE3 in the presence of DTT; 2.5-40 μM.
Data set [2] shares this target. As to the kind of experiment: SEC; 30 μg protein on Superdex 200 Increase 10/300 GL in PBS pH 7.4; MM from a standard curve of elution volumes.
The target is the same in data set [3]. As to the kind of experiment: non-reducing SDS-PAGE; 10 μg protein without β-mercaptoethanol, heated, 4-20% gel, Coomassie stain; shows inter-protein disulfide bridges.
Data set [4] has the same target. As to the kind of experiment: SAXS; EMBL P12 beamline, 20 °C, four concentrations between about 10 and 90 μM; MM from I(0) and equilibrium fit with OLIGOMER on PDB structures.
Data set [5] shares this target. Described as above. This is another data set of the same source.
Data set [6] has the same target. As to the kind of experiment: mass photometry; protein stocks diluted in PBS pH 7.4 to nanomolar concentrations (~100 nM) immediately before measurement; detection threshold ~40 kDa.
The target is the same in data set [7]. As to the kind of experiment: native MS; online buffer exchange MS; proteins diluted in 50 mM HEPES, 50 mM NaCl pH 7.4 (FabG: 25 mM tricine, 50 mM NaCl pH 8.5), overnight at 4 °C, exchanged online to 200 mM ammonium acetate pH 6.8; range of concentrations 40-0.15 μM before dilution; DeoC: apparent affinity, dimer to monomers, fit of eqn (1).
Data set [8] concerns the target SpeB (E. coli BL21 (DE3)). Nature of the data set: not stated; summary of the solution experiments on the 17 proteins (native MS, MP, SEC, SAXS); which method gave the stated form is not given; details in Table S2, Fig. 5A and Fig. 6.
Data set [9] has as its target IspD (E. coli BL21 (DE3)). The data set is described as above.
Data set [10] has as its target Upp (E. coli BL21 (DE3)). As to the kind of experiment: mass photometry; protein stocks diluted in PBS pH 7.4 to nanomolar concentrations (~100 nM) immediately before measurement; detection threshold ~40 kDa.
The target of data set [11] is Upp (E. coli BL21 (DE3)). Nature of the data set: not stated; summary of the solution experiments on the 17 proteins (native MS, MP, SEC, SAXS); which method gave the stated form is not given; details in Table S2, Fig. 5A and Fig. 6.
For data set [12], the target named is Superoxide dismutase (SodA) (E. coli BL21 (DE3)). As to the kind of experiment: SEC; 30 μg protein on Superdex 200 Increase 10/300 GL in PBS pH 7.4; MM from a standard curve of elution volumes. (SEC sorts molecules by how far they enter the pores of the column.)
For data set [13] the target is unchanged. As to the kind of experiment: SAXS; EMBL P12 beamline, 20 °C, four concentrations between about 10 and 90 μM; MM from I(0) and equilibrium fit with OLIGOMER on PDB structures.
For data set [14] the target is unchanged. Nature of the data set: mass photometry; protein stocks diluted in PBS pH 7.4 to nanomolar concentrations (~100 nM) immediately before measurement; detection threshold ~40 kDa.
The target is the same in data set [15]. Nature of the data set: native MS; online buffer exchange MS; proteins diluted in 50 mM HEPES, 50 mM NaCl pH 7.4 (FabG: 25 mM tricine, 50 mM NaCl pH 8.5), overnight at 4 °C, exchanged online to 200 mM ammonium acetate pH 6.8; range of concentrations 40-0.15 μM before dilution; DeoC: apparent affinity, dimer to monomers, fit of eqn (1).
Data set [16] addresses Can (E. coli BL21 (DE3)). Nature of the data set: not stated; summary of the solution experiments on the 17 proteins (native MS, MP, SEC, SAXS); which method gave the stated form is not given; details in Table S2, Fig. 5A and Fig. 6.
Data set [17] has as its target NadK (E. coli BL21 (DE3)). Nature of the data set: SEC; 30 μg protein on Superdex 200 Increase 10/300 GL in PBS pH 7.4; MM from a standard curve of elution volumes.
The target in data set [18] is NadK (E. coli BL21 (DE3)). As to the kind of experiment: SAXS; EMBL P12 beamline, 20 °C, four concentrations between about 10 and 90 μM; MM from I(0) and equilibrium fit with OLIGOMER on PDB structures.
Data set [19] deals with NadK (E. coli BL21 (DE3)). Nature of the data set: native MS; online buffer exchange MS; proteins diluted in 50 mM HEPES, 50 mM NaCl pH 7.4 (FabG: 25 mM tricine, 50 mM NaCl pH 8.5), overnight at 4 °C, exchanged online to 200 mM ammonium acetate pH 6.8; range of concentrations 40-0.15 μM before dilution; DeoC: apparent affinity, dimer to monomers, fit of eqn (1).
Data set [20] concerns the molecule itself. As to the kind of experiment: SEC; 30 μg protein on Superdex 200 Increase 10/300 GL in PBS pH 7.4; MM from a standard curve of elution volumes.
Data set [21] deals with the molecule itself. As to the kind of experiment: native MS; online buffer exchange MS; proteins diluted in 50 mM HEPES, 50 mM NaCl pH 7.4 (FabG: 25 mM tricine, 50 mM NaCl pH 8.5), overnight at 4 °C, exchanged online to 200 mM ammonium acetate pH 6.8; range of concentrations 40-0.15 μM before dilution; DeoC: apparent affinity, dimer to monomers, fit of eqn (1).

Broadly, the stoichiometry N is the number of molecules, sites or subunits per partner or assembly.

In the case of “FabG (3-oxoacyl-[acyl-carrier-protein] reductase) from E. coli-DE3 (enzyme)”, the stoichiometry N was 2 and 4 in data set [1]; 4 and 2 in [2]; 6 and 2 and 4 in [5]; 2 and 4 and 6 in data set [6]; 6 in data set [7]. Further, the percent in an inter-protein disulfide bonded dimer in [3] is 50%. Moreover, the SAXS MM from I(0) divided by the monomer's mass in data set [4] worked out at 3.7; in data set [5], 3.5.
In data set [8], SpeB (enzyme) came in with a stoichiometry N of 6.
As for IspD (enzyme), the stoichiometry N in data set [9] is 2 and 4.
Consider Upp (enzyme), for which the stoichiometry N in data set [10] was 2; in data set [11], 2 and 4 and 6.
On to Superoxide dismutase (SodA) (enzyme), for which the stoichiometry N in data set [12], in [13], in data set [14] and in data set [15] was 2 throughout.
Molecule Can (enzyme) yielded a stoichiometry N in data set [16] of 4.
With NadK (enzyme), the stoichiometry N in data set [17] turned out to be 2.7. Besides, in data set [18], the subunit average from SAXS I(0) at 8 μM amounted to 2.37 and the subunit average from SAXS I(0) at 61 μM stood at 2.67. In data set [19], the percent dimer at ∼1 μM is 56%, the percent dimer at ∼40 μM was 23%, the percent monomer at ∼1 μM is 12% and the percent monomer at ∼40 μM was 2%. In data set [19], the percent tetramer at ∼1 μM stood at 32%; the percent tetramer at ∼40 μM came to 75%; the stoichiometry N was 2 and 4.

B1: FabG (3-oxoacyl-[acyl-carrier-protein] reductase) from E. coli-K12 (enzyme, E. coli K12)
chain: MNFEGKIALVTGASRGIGRAIAETLAARGAKVIGTATSENGAQAISDYLGANGKGLMLNVTDPASIESVLEKIRAEFGEVDILVNNAGITRDNLLMRMKDEEWNDIIETNLSSVFRLSKAVMRAMMKKRHGRIITIGSVVGTMGNGGQANYAAAKAGLIGFSKSLAREVASRGITVNVVAPGFIETDMTRALSDDQRAGILAQVPAGRLGGAQEIANAVAFLASDEAAYITGETLHVNGGMYMV
notes: FabG, 3-oxoacyl-[acyl-carrier-protein] reductase of E. coli K12, Arg at position 167; probably the same vector, cleaved His-bdSumo tag and added N-terminal alanine as for the other proteins; also called FabG^K12; source: E. coli, purified
With B1, the “stoichiometry N” value in [20] was 2; in data set [21], 4.
